Results: US20050009182

Biological target: T1, phiC31 integrase (Streptomyces phage phiC31) (UniProt Q9T221)
T1 sequence: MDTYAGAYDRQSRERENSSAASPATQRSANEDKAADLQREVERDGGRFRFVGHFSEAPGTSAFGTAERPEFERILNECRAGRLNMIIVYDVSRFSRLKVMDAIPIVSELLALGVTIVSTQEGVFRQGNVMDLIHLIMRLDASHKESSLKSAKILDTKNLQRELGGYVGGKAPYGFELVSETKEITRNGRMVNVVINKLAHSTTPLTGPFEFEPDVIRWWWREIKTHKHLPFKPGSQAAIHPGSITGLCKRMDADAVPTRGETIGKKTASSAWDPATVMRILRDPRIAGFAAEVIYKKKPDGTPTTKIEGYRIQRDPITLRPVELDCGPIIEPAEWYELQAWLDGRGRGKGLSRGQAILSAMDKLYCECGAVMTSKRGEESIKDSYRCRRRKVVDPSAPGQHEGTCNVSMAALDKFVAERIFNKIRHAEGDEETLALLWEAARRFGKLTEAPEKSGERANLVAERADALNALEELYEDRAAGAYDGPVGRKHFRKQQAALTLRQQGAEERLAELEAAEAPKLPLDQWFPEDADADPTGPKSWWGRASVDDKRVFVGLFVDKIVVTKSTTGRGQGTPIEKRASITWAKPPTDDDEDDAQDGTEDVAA
Assay: cell_activity

Substance | activity (Ura+ transformants per 10^7 cells) (S. pombe FY527attPx2, circular pLT50 plus pLT43, 63 without integrase) | activity (Ura+ transformants per 10^7 cells) (S. pombe FY527attPx2, linear attB-ura4-attB plus pLT43, 19 without integrase)
phiC31 attB (500 bp BamHI-XbaI fragment of pHS21) | 2560 | –
phiC31 attP 84 bp (ApaI-SacI fragment of pHS282) | – | 1570
